In patent publication US20030224453A1, “Structural models for cytoplasmic domains of transmembrane receptors” (priority 1998, published 2003):

B1: β1D construct (G1 or G4 variant not stated) (designed binder, part only; not given: number of added glycines, part only)
chain, part: GSSHHHHHHSSGLVPRGSHMKLEALEGRLDALEGKLEALEGKLDALEGKLLMIIHDRREFAKFEKEKMNAKWDTQENPIYKSPINNFKNPNYGRKAGL
B2: β7 construct (G1 or G4 variant not stated) (designed binder, part only; not given: number of added glycines, part only)
chain, part: GSSHHHHHHSSGLVPRGSHMKLEALEGRLDALEGKLEALEGKLDALEGKLSVEIYDRREYSRFEKEQQQLNWKQDSNPLYKSAITTTINPRFQEADSPTL
B3: G4-β1A-Y788A: G4-β1A variant with Tyr to Ala substitution in the membrane-proximal NPXY-motif (protein)
chain: GSSHHHHHHSSGLVPRGSHMKLEALEGRLDALEGKLEALEGKLDALEGGGGKLLMIIHDRREFAKFEKEKMNAKWDTGENPIAKSAVTTVVNPKYEGK
B4: G4-β1B: G4 model protein with β1B splice variant cytoplasmic domain (protein)
chain: GSSHHHHHHSSGLVPRGSHMKLEALEGRLDALEGKLEALEGKLDALEGGGGKLLMIIHDRREFAKFEKEKMNAKWDTVSYKTSKKQSGL

Legend:
talin [1] = molecular target: T1, talin (Homo sapiens, UniProt Q9Y490); assay: densitometry of Coomassie-stained gels; purified talin on model protein resin
filamin (ABP-280) [2] = molecular target: T2, filamin (ABP-280) (Homo sapiens, UniProt P21333); assay: densitometry of Coomassie-stained gels; purified filamin on model protein resin
filamin (ABP-280) [3] = molecular target: T2, filamin (ABP-280); assay: Binding of resin-bound cytoplasmic domain model proteins to purified filamin; parameters: Human uterus filamin (ABP-280) was prepared as a 1.5 mg/ml solution; from tissue; host or cells: human uterus; conditions: result in words
Method: (§1) Purified recombinant cytoplasmic domain proteins (500 μg) were dissolved in a mixture of 5 ml 20 mM Pipes, 50 mM NaCl, pH 6.8 and 1 ml 0.1 M sodium acetate, pH 3.5 and bound overnight to 80 μl of Ni^2+ saturated His-bind resin (Novagen). […] Resins were washed twice with 20 mM Pipes, 50 mM NaCl, pH 6.8, and stored at 4° C. with 0.1% sodium azide as suspensions with one volume of this buffer. Fifty microliters of such a suspension were added to 4.5 ml of cell lysates which had been diluted tenfold with buffer A containing 0.05% TRITON X-100, 3 mM MgCl2 and protease-inhibitors. After incubation overnight at 4° C., resins were washed five times with this buffer and finally heated in 50 μl of reducing sample buffer for SDS PAGE. Samples were separated on 4-20% SDS polyacrylamide gels (NOVEX) and either stained with Coomassie or transferred to Immobilon P membranes (Amersham Corp., Arlington Hts, Ill.). Membranes were blocked with TBS, 5% nonfat-mild powder and stained with streptavidin-peroxidase (VECTASTAIN) or specific antibodies. Bound peroxidase was detected with an enhanced chemiluminescence kit (Amersham).
Human uterus filamin (ABP-280) was prepared as a 1.5 mg/ml solution in 0.6 M KCl, 0.5 mM ATP, 0.5 mM DTT, 10 mM imidazole, pH 7.5. For binding assays performed as described in Example 5, this solution was diluted 1/12 with buffer A, 0.05% TRITON X-100, 3 mM MgCl2, 2 mg/ml BSA, protease-inhibitors (see Example 5), omitting the 50 mM NaCl (see Example 5), and resins with bound model proteins were added. Washing was performed in this buffer without BSA and with additional 50 mM KCl.
Talin was purified from human platelets in accordance with well known procedures with an additional purification step using chromatography on phosphocellulose and stored at 1 mg/ml in 10 mM NaCl, 50% glycerol. This solution was diluted to either 87 or 17 μg/ml talin with buffer A, 0.05% TRITON X-100, 3 mM MgCl2, 2 mg/ml BSA and protease inhibitors (see Example 5, including 0.1 mM E-64) and processed as indicated in the binding assays with cell lysates. […]
Target sequence in this assay (P21333 whole entry, the tested form may be a part): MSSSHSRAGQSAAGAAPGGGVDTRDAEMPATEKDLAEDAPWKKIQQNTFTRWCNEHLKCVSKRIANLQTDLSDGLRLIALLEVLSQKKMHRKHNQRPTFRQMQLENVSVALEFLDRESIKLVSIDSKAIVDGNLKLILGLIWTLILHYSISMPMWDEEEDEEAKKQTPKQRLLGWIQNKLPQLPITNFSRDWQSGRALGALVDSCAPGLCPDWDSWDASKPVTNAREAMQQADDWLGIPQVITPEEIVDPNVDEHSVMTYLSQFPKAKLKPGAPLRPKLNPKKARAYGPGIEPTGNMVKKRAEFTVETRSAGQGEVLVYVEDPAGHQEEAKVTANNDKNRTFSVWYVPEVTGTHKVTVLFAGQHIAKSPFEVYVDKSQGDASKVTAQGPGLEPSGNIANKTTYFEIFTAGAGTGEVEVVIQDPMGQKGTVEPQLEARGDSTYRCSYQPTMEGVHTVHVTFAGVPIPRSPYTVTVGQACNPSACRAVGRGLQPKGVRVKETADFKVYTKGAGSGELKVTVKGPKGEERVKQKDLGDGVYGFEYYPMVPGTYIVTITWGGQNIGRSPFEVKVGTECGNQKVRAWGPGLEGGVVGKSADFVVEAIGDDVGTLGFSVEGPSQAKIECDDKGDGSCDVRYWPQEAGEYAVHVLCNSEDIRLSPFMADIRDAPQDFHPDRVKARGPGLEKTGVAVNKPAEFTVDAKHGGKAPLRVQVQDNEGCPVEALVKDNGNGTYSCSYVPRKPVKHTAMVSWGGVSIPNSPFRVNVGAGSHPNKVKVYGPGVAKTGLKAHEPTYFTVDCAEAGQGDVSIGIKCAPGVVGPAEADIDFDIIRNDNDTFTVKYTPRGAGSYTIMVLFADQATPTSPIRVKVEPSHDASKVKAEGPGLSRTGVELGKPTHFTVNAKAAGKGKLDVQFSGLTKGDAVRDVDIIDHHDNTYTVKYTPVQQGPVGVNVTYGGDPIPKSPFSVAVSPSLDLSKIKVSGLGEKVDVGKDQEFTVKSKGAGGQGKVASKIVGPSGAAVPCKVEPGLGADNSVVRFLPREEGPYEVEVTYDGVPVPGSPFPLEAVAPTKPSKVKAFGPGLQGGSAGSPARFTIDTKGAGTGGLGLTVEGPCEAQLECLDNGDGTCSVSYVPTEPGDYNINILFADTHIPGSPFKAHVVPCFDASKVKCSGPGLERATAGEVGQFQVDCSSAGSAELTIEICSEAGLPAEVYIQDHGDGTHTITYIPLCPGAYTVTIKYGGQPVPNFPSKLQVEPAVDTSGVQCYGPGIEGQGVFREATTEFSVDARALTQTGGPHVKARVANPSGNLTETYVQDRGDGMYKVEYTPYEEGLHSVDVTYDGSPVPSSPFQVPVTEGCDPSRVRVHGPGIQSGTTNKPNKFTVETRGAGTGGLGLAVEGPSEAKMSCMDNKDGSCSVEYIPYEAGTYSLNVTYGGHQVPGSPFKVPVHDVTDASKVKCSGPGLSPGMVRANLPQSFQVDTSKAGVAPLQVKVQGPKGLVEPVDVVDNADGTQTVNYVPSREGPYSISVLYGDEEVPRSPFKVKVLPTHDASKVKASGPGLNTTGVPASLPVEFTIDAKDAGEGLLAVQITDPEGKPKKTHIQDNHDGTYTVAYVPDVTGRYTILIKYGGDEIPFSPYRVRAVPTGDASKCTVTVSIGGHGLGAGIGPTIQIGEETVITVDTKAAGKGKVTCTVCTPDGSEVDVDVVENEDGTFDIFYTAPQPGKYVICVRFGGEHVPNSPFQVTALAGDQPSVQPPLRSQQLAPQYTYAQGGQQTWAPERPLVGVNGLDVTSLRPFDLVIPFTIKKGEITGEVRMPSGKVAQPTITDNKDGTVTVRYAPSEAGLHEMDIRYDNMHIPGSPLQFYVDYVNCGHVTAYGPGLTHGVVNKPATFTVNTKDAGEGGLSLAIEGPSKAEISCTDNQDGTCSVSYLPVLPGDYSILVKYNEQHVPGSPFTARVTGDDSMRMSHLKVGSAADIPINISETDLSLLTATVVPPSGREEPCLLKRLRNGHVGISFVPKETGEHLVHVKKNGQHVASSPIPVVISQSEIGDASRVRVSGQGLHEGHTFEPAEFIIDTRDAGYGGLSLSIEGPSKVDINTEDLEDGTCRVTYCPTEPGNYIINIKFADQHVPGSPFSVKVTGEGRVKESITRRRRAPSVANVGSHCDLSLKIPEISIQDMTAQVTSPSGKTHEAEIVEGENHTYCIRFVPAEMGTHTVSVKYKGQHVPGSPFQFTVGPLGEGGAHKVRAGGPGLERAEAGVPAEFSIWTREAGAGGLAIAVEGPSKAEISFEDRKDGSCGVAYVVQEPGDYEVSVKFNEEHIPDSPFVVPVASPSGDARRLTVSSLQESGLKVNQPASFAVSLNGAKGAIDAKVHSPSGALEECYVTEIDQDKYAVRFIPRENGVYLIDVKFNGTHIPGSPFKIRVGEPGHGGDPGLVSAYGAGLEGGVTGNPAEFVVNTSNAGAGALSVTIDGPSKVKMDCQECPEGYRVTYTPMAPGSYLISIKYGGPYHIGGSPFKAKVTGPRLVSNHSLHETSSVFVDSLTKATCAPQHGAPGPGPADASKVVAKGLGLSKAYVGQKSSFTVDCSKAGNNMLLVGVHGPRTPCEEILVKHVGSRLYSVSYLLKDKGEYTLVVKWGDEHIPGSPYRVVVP

filamin = assay: Affinity chromatography of cell lysates on cytoplasmic domain mimics, filamin (240 kDa) detected; type: binding; conditions: NHS-biotin-labeled human platelet lysates; result in words
Excerpt: To study possible influences of the structural changes induced by the Gly insertions, protein models were produced having the β1A cytoplasmic domain with one, two and three additional Gly residues inserted after the heptad-repeat motif (G2-, G3-, G4-β1A) and compared with the G1-β1A construct. As an additional control, a variant of the G4-β1A peptide was produced with a Tyr to Ala substitution in the membrane-proximal NPXY-motif (G4-β1A-Y788A) (FIG. 1). This mutation interferes with focal adhesion targeting and activation of integrins. The purified proteins were bound via their N=terminal His-Tag to a Ni^2+−resin and used in affinity chromatography experiments with lysates of NHS-biotin-labeled human platelets. Marked changes in the pattern of protein binding were observed as a consequence of the Gly insertions. Polypeptides migrating at 45, 56, 58, 140 and 240 kDa bound only to the mimics with Gly insertions. […] Using monoclonal antibodies, the 240 kDa and 45 kDa proteins were identified as filamin and actin, respectively. […] Talin bound to the G1- and G4-β1A construct but not to the Y788A-G4β1A construct. Thus, the structural changes in the model induced by the insertion of glycines into the coiled-coil motif and the integrin cytoplasmic domain sequence alter interactions of these proteins with cellular components. […]

talin [4] = molecular target: T1, talin; assay: Affinity chromatography of cell lysates on cytoplasmic domain mimics, talin detected; type: binding; parameters: endogenous in cells; host or cells: human platelets (also Jurkat, HT1080, mouse C2C12 myotubes); conditions: NHS-biotin-labeled human platelet lysates; result in words
Excerpt: To study possible influences of the structural changes induced by the Gly insertions, protein models were produced having the β1A cytoplasmic domain with one, two and three additional Gly residues inserted after the heptad-repeat motif (G2-, G3-, G4-β1A) and compared with the G1-β1A construct. As an additional control, a variant of the G4-β1A peptide was produced with a Tyr to Ala substitution in the membrane-proximal NPXY-motif (G4-β1A-Y788A) (FIG. 1). This mutation interferes with focal adhesion targeting and activation of integrins. The purified proteins were bound via their N=terminal His-Tag to a Ni^2+−resin and used in affinity chromatography experiments with lysates of NHS-biotin-labeled human platelets. Marked changes in the pattern of protein binding were observed as a consequence of the Gly insertions. Polypeptides migrating at 45, 56, 58, 140 and 240 kDa bound only to the mimics with Gly insertions. […] Using monoclonal antibodies, the 240 kDa and 45 kDa proteins were identified as filamin and actin, respectively. […] Talin bound to the G1- and G4-β1A construct but not to the Y788A-G4β1A construct. Thus, the structural changes in the model induced by the insertion of glycines into the coiled-coil motif and the integrin cytoplasmic domain sequence alter interactions of these proteins with cellular components. Alterations of the β1A tail that block cytoskeletal interactions, such as the Y788 mutation and β1B- and β1C-splice variants also abrogate binding to talin and filamin. Consequently, the observed in vitro interactions are likely to be biologically relevant.
Human platelets were obtained by centrifugation of freshly drawn blood samples at 1000 rpm for 20 minutes and sedimentation of the resulting platelet-rich plasma at 2600 rpm for 15 minutes. They were washed twice with 0.12 M NaCl, 0.0129 M trisodium citrate, 0.03 M glucose, pH 6.5, and once in Hepes-Saline (3.8 mM Hepes, 137 mM NaCl, 2.7 mM KCl, 5.6 mM D-Glucose, 3.3 mM Na2HPO4, pH 7.3-7.4). […]

talin [5] = molecular target: T1, talin; assay: Binding of resin-bound cytoplasmic domain model proteins to purified talin; parameters: Talin was purified from human platelets in accordance with well known procedures; from tissue; host or cells: human platelets; conditions: result in words
Method: as §1
Talin was purified from human platelets in accordance with well known procedures with an additional purification step using chromatography on phosphocellulose and stored at 1 mg/ml in 10 mM NaCl, 50% glycerol. […]

T1 sequence (Q9Y490 whole entry): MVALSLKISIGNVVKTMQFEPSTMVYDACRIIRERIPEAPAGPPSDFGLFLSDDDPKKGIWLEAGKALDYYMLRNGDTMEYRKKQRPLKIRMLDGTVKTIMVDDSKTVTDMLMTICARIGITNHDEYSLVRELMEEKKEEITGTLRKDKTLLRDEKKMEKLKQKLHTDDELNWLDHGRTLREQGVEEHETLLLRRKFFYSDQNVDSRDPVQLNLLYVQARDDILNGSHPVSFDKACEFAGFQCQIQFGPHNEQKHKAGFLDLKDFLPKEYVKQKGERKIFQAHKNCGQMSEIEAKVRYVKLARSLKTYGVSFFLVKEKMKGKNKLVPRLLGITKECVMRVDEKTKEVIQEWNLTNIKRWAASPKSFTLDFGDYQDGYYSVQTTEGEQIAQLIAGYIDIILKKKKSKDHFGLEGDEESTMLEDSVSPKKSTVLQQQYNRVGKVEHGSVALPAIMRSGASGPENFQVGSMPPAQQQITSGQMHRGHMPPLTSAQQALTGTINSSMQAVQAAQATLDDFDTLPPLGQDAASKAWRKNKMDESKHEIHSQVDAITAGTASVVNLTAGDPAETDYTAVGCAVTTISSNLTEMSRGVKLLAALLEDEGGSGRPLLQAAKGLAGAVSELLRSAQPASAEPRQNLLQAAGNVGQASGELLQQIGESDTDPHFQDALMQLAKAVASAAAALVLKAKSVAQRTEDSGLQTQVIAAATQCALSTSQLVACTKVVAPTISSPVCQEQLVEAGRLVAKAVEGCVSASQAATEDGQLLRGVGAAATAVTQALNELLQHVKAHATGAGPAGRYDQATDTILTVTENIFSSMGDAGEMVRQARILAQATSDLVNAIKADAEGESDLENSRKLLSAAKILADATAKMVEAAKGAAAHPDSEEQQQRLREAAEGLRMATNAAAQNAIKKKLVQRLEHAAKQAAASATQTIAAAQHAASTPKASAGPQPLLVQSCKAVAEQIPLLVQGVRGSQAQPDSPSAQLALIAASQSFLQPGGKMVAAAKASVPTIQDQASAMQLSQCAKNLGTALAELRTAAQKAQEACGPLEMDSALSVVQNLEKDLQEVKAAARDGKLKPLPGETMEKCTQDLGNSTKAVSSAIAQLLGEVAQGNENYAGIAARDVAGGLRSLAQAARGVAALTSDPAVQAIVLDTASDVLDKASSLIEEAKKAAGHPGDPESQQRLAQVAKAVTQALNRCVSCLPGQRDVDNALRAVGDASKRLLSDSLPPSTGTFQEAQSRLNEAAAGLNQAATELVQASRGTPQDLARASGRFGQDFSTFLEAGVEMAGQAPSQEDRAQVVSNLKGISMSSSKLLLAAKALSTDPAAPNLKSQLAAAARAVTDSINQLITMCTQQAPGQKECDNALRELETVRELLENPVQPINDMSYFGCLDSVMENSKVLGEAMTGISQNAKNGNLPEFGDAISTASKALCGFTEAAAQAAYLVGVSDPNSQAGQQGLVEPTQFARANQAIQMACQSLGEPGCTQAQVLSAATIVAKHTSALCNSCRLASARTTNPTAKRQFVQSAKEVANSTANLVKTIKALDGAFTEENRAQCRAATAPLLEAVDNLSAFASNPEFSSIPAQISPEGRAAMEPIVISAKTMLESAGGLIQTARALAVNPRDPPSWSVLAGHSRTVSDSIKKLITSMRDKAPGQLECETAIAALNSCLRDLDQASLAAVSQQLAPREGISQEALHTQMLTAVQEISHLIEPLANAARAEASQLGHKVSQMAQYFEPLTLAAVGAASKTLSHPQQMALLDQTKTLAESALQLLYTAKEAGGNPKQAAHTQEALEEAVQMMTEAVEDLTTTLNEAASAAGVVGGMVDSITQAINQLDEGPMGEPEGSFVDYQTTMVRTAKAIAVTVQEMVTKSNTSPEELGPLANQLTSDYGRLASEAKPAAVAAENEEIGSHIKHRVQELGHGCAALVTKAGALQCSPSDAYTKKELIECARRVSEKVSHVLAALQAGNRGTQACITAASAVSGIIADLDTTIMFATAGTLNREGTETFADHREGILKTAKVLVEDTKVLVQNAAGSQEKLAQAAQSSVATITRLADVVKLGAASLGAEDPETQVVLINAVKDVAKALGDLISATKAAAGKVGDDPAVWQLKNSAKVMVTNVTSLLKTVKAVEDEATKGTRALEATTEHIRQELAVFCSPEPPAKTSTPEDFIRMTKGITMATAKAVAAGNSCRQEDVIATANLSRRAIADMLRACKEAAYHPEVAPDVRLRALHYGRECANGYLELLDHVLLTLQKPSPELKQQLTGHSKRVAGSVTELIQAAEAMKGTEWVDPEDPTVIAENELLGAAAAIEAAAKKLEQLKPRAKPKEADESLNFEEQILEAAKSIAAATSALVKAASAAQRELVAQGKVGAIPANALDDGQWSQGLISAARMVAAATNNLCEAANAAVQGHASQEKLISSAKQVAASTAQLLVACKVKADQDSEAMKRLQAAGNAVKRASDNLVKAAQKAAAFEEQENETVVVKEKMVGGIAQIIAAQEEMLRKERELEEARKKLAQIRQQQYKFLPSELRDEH

Row | Molecule | fold more talin bound than by the β1A model protein (talin [1]) [fold] | fold more filamin bound than by the β1A model protein (filamin (ABP-280) [2]) [fold] | binding of purified filamin, comparison between constructs (filamin (ABP-280) [3]) | filamin (240 kDa) binding from cell lysates (filamin) | talin binding from cell lysates (talin [4]) | binding of purified talin compared to G4-β1A (talin [5])
1 | B1 | 9 | – | – | – | – | –
2 | B2 | – | 8.4 | bound more filamin than G4-β1A or G4-β1D | – | – | –
3 | B3 | – | – | functionally reduced | suppressed the interaction with the 240 kDa | not | functionally reduced
4 | B4 | – | – | functionally reduced | – | – | functionally reduced
